# Data: the DeepSol protein solubility set
# Experiment: soluble on expression in E. coli; label from the status in PepcDB or PDB records
row,Sequence,soluble on expression in E. coli
1,MDICDISASQLATSPPPRTAIDFNSSIEESPVKRVKFSPELTKSFEETLSPTVTLVLRNNEEVIFDRYLLSFYSNYFRVLFSSKFRDSNSTTHRIRLISASDLHFLLTIPKAFEQGIKPNITLQKAIELLEPAAFLQMSIALDYISDIICKNLTHENIIKIFRLALLYHTTLAVRVWRSMVRKFQTLFATNVYLSLKENELIGLLTDKHLNLKSEDETTVVVNWIKHNSPLQSDRLTQFAQRNFSRRPQPDATKYEVIRTRQPMDAIVCFGGWASRGVAQKIEVCNTRSDRWQTCNFNYDIPNIHRAYHGIEVVEDKLIVYGGFDGIKQFQTTVLFDLSTKEWRRGANMNDKRCYVTSARVNDSYGRPLVFACGGMNGVSRLKTAEMYDYRADQWTEVANMTQMRSDGAVVTIDNKIVAIGGFDGRNIHQGGEVYDPVLDLWHPLSSNMRTRRTGCTAVSIMNQVCMIIGGFNGNRRLDSAEIYDMREGLWHPEPTLQTARSNFSACQMDTCYVYVAGGFDGQTTTKESERLDLRSKMWQALPDMAEAKSALRMVTLSDHPFLDELFDIPDDTGIVTSW,not soluble
2,MSLTERVLVTGGGGFVACHLIQQLLASGNVVNTTVRNLTNRAKVLPLLTLQKQHPGKLYLFEADLLVDGAFDAPMHDCTVVHHVASPFLLPEKIKDGRREMLEPALLGTRNVLSSVDKTPSVLRVVMTSTVGAIFGDYIDVLHMKNKTLTEDYFNTSSTLETNPYHYAKVEAEKEAWRICEKQTRWSLVTINPGMILGPSLTPASDSGSLFLLDEMFRGYFFYGMPDLSLTTVDVRDVAAAHIIAANKVDAQGRYILAEQHMISFVEIAGIVRRLHRRPWLLPRYRIPDAIVRLIGPFFGLTQDYLSKHLGIRFVVDNQRSLNDLGIKYRSITETLTDHYRCWDMQRQLNEGHHHHHH,soluble
3,MSLDIKRVLKAAPTKMRSREPLQQLWTPWGERIEHEWLSARAGNKAFNPAEEGERTLDEGRTPILGEHPRPTMVRDNCTMLNGWWDYAIVSIPEDETAPKWRKTAAMLTRDEAVRAVKETAIPQTFDGKILVPFSPESALSGVHQTIYPDNLLWYRTVVHPVTLGGEETVRQIGDANRLILHFEAVDYVCACYVNGQLAGTHVGGYLPFDVDISAFIDPDDAFEIALCVYDPNDSGTQLRGKQKIEREGIWYTAQSGIWQSVWLEIVPEAYLRTLTLKGASDGKLFVRAEIGGDKPNAKLHIVVTDPADGTVVADETLPAGVRKVRAEIATAAEHLWSPADPYLYDVRAELRYGSAKPAETAGDAAVVQSQPMDVVSSYCAFRSVEIKPDTKGVARFHLNGKPLFVKGVLDQGYWPDGLMTAPDDEALTHDITAMKNAGFNMLRKHIKIESARWYYHCDRLGMLVWQDAVSGGGTDGEYNAWTTNRKPTLIRSTWNKFRDDTAKHFTALGADDPIYRRDWSRTCDAMVHMLGGHPSIVTWTLFNEGWGQFDACDATERIHALDPTRPIDATSGWYDQHCGDYHSVHNYFRPLEIYPDKGPLRGYVAEFEKKHRRRRRAAHYVVLPVARHGVRAFVISEFGGLAQLVPEHAAVSRAYGYGEYDSIDDWRAAVRSVLASAAALESRGLAGYVYTQVSDVEEELNGLLTYDRRVDKFAEEGHHHHHH,soluble
4,MKHWFNIALAALALSSATVQAATEVKVGMSGRYFPFTFVKQDELQGFEVDVWNEIGKRNDYKVEFVTANFSGLLGLLETGRIDTISNQITITDARKAKYLFSDPYVIDGAQITVRKGNEAIKGIDDLAGKTVAVNLGSNFEQLLRNHDKDGKINIKTYDTGIEHDVALGRADAFVMDRLSALELIEKTGLPLQLAGSPFETIENAWPFVNNEKGQQLQGEVNKALAAMRADGTLSQIALKWFGTDISQ,not soluble
5,MGSDKIHHHHHHMFVNRKEELEFLERKWREEGAQLIIIYGRRRIGKTMLLKEFLKGKRGIYFLATADSMAENIRGLAEKFTKLTRREYFMEVRDFRRLFRYLAEEMGKERVAVVLDEFQYLISLDPGILSVLQKIWDEYLKDTGIFLILCGSSIGMMERTLEYKSPLYGRRTGAWKVKPFDIRGIAEMFPERSMEELVKIYAVFGGVPFYLDLIRNLSVENAIKERILKKGEILYEEPEFLLREELREPRVYKLILKGLALGYESLGELINFTGLDRGNLSKYLDTLERLELVGYELPYGKRKRGQYYIRDNFFNFWFRFVYPNLADLELGLVNEVWERISGEINAYYGKMFERLVREMLRLRILDFGQKGVSRWWHRGEEIDAIAELKDKLLFVEVKWKDLNRREARKILKDLKRKSERFEGEKEFLLIAKRIEDKEEGMLDLEDLEKVIRNL,not soluble
6,MDIHVLSYGLGNQLSQYAFFINRRQLMQRAYAFYAFKQHNGYELDRIFGLKEGLPWYLQFVRVVFRLGISRRFYSKRTADFVLSLFRIKVIDEAYNYEFDPSLLKPWFGIRILYGGWHDSRYFHPSEAAVRTAFSFPPLDDVNDAILQQIDAVYGVSIHVRRGDYLKGINSNLFGGIATLEYYRNAIGWAITYCKHRSLEIKFYVFSDDIDWCKQNLGLRDAVYVSGNSKTDSWKDILLMSHCRANIIANSTFSWWAAWLNQQPNKVVICPTKFINTDSPNQTIYPAAWHQIEGLEHHHHHH,not soluble
7,RVDADNTALVDLWERSVRATHDFLSEADIVELYPQVRDLYLPAVEVWVLVDDDGVAQGFIGLNQAHVEMLFVEPGLRGRGIGRRLLDHARATWPRLSVDVNEQNPQACGFYRHYGFRQTGRSATDSAGRPFPLLHMSL,not soluble
8,MAHHHHHHMRFLSSSAVSPSPIRPSTGGASGKERLHHELPILHWRAGGGGEVGGGQHDDADSSDEYNEAHLCCDDWASSPAEPAAAAATFQTRQSDTPDGLHVDSDDDDNADDDGGEDTAGQTWIEEALRRAEAKCAVLRLELTFATERAVAAEANARARERECAELHALASRMQAQLAAAQMTAEWATANTRADAEVQVAACTASLDDIAASAFSSPNSPNRLGTTSLSMRKGTALADGTVWRRRHDIVAQELATLKVSMAEQLAVLDRLGMQPPFSEELVCAAERRLRHVKVAHAPGTAMKASQPDATIPGTPHTLTRSTCVDSAASADLSAGGASVTATTKKIQVRNGNKIAALLNLRKQNRHQEKPAAAAADAMATGVTDSATTPSTSAPPVKRDGSEDCRTTLDAKENHYVV,not soluble
9,MGSDKIHHHHHHMLSLKNINFKGVKGINELELTLSDNPINVLIGTNGIGKTKALEALYTLLIFTNTAFQKYAMNGKDVVFNECLIANEQVIRIDNTESYTYIKQFFTNNKLSHSYPVIFIAAQNRGKIKSENSNSISPLGNADTRAYNYFRHIIRSMENDFSSLNMDMPIEEWIIQRANSSTSYQDEEDNRELELISLLKILNKIDERISCDKSTLKISGDNQVSILVDGKKTKLSALSSGFASLIKIIQSIIAGYSFFTNSRQIENVEGYVLIDEIESHLHLEWQTKILPILSEVFPYTRFIITTHSSLILSQLYTGSASRLVHEGSKIINEDIPNASNFTLIDLLQEAFDIDLNQIKISSTTAKHQERVKKAILDLLGA,not soluble
10,GMKNIKIMRLVTGEDIIGNISESQGLITIKKAFVIIPMQATPGKPVQLVLSPWQPYTDDKEIVIDDSKVITITSPKDDIIKSYESHTSEIITPSGLITET,soluble
11,ELQKKIKAADDIFPNQKKNPDKKDNPNVLEVLGEYGGDGFFPTLGNNGLNIPDQVFQSFNNFQIENYKISDFKVDIASERDIVQHDKFRFSYVVN,soluble
12,MGSDKIHHHHHHAEYIHVIPADASAVASINLNSLADKAGLNDKQNEGMKQKMMEALKSGMNAAAFQQLEKIMKNPSQSGIDVKAPVFVFTSKTFISPTIVAKVSNIEDLRASLDLMAKEGICQPIAEEEGYSFTSLQKNNLLVFNENAAVLTEAYGTSQMDVAKQTISTLLKQTEENSIASNGSFRKMQDQKGDINFFASMDAVPKMYTQQISLGLSSQIDLSEVKAVGNLNFEKGKIALQIETYSDNAETDALLKKQAQAVKKLNTTFLQNFPESTLAFLNIGVNGAAFYDLLFNNEEFRRNVSLAKADEVKSLFASFDGDISIGLINVTLNSVPTFAAYADAKNGNALKALYDNKKQLKLGKNEDIIQLGENEYVYKSRATNVFFGIRNKQMYATNDELLYKSISKPVEKSIKDAGYVSDMKGKNVFFVINMDAILDLPVVKMMAGFGGEEYQTYYKLASKISYIEAFSDSEGKTETAILLKNKDDNALKQIVDFAKQFAGM,not soluble
13,MSVLRSMDKLPDLNRATVLLVSTEDALLQQLAESMLKDDCASELRVHLANSLPLPSNVNRPRIDLIVFVINLHSKYSLQKVEEFLQHVDSSFFLGKVCFLVTGAGQESHCSVHQNTVIKLAHTYRSPLFLCDLQKVESFRAAMARRLVRILQICAGHVPGVSALNLMSLLRSPENPPSKEL,not soluble
